Measurements reported in US9655974B2, “N-terminal modified FGF21 compounds” (Novo Nordisk A/S, priority 2010, dated 2017).

Experiments:
[1] = system: 3T3-L1 adipocytes; experiment: Potency assay - glucose uptake in 3T3-L1 adipocytes; type: cell-based, mouse; details: EC50 relative to EC50 of Met-FGF21; 20 hours stimulation, 3H-deoxyglucose tracer
Protocol: The following assay was used for determining the biological activity, or potency, of FGF21 compounds of the invention. […] The cells are not allowed to reach confluence and should be passed (transferred to new vials) before reaching approx. 60% of confluency (by visual inspection). For the glucose uptake assay, cells are plated 80,000 cells/well in a 24 well plate, or 20,000 cells/well in a 96 well plate, and when they reach confluency (high density, with a view to have differentiated adipose cells made), the medium is changed from basal medium to basal medium containing Troglitazone, IBMX, Dexamethasone (commercially available from, e.g., Sigma) and human insulin (commercially available from, e.g., Novo Nordisk A/S). The cells are used 7-14, preferably 7-10, days after initiation of differentiation. […] This incubation is terminated by washing twice in ice cold assay buffer. The cells are lysed with Triton X-100 and lysates transferred to a 96 wells plate, microscint-40 (commercially available from, e.g., Perkin Elmer) is added and amount of tracer counted in a TOP-counter (e.g. a Packard top-counter from Perkin Elmer). The EC50 of the polypeptide in question is calculated.

[2] = system: HEK293 cells stably transfected with human beta-Klotho; experiment: HEK293/beta-Klotho Erk phosphorylation assay; type: cell-based; details: without HSA; 12 minutes incubation; AlphaScreen SureFire Phospho-ERK1/2; read-out: pERK-HEK293-Beta-klotho without HSA [EC50 (nM)] Mean Value
Protocol: Erk phosphorylation assay was performed in HEK293 cells that were stably transfected with human beta-Klotho. The HEK293T/b-klotho stable cells were seeded at 30000 cells/well on 96-well plates. After two days, fresh media was added, and after 2 hours more the FGF21 proteins were added. The plates were incubated for 12 minutes. And total ERK phosphorylation was assessed using an AlphaScreen SureFire Phospho-ERK1/2 Assay Kit (Perkin Elmer, Waltham, Mass.) according to the manufacturer's instructions and an EnVision Multilabel Microplate Reader Model 2103 (Perkin Elmer) with the AlphaScreen HTS Turbo option was used for signal detection. Data are represented as means+/−S.E.M. EC50 values were determined from a 4-parameter logistic nonlinear regression analysis using GraphPad Prism version 5.02. References: Yie, J. et al.: FGF21 N- and C-termini play different roles in receptor interaction and activation, FEBS Letters 583 (2009) 19-24, and Micanovic R. et al.: Different roles of N- and C-termini in the functional activity of FGF21. J. Cell. Physiol. 2009 May; 219(2):227-34.

[3] = Pharmacokinetics in mini pig, single intravenous dose; type: in vivo; details: normal male Göttingen mini pigs, single intravenous dose of 0.1 mg/kg; standard deviation 2.7 hours
Protocol: The pharmacokinetic profile of Met-FGF21 can be tested in normal male Göttingen mini pigs, n=4 (8-15 months old, weighing approximately 18-30 kg). The plasma concentration of the compound to be tested is monitored for 14 days. The Met-FGF21 is dosed as a single intravenous dose of 0.1 mg/kg (approximately 5 nmol/kg).
The plasma levels of the FGF21 compounds can be determined using Fibroblast Growth Factor-21 Human ELISA (available from BioVendor, catalogue no. RD191108200R). The PC based software, WinNonLin version 5.2 from Pharsight Corporation, Cary N.C., can be used for the pharmacokinetic calculation.

Molecule	Glucose uptake 3T3-L1 Potency (%) rel. to Met-FGF21 [1] [%]	EC50 [2] [nM]	mean half-life (T1/2) [3] [h]
[Q28R, K56R, K59R, K69R, D102T, D121Q, K122R, L166F, S167G, M168L, G170T] Ala-FGF21 [Example 2b]	416	0.8	
N-alpha(4-{[2-(2-{2-[2-(2-{2-[(S)-4-Carboxy-4-(17-carboxyheptadecanoylamino)butyrylamino]-ethoxy}ethoxy)acetylamino]ethoxy}ethoxy)acetylamino]methyl}benzyl) [S71C, N121Q, L166F, S167G, M168L, P171L, S172E, Q173A, G174V, Y179F, A180E, des181] Ala-FGF21 [Example 6]	352	0.4	
N-alpha-(4-{[2-(2-{2-[2-(2-{2-[(S)-4-carboxy-4-(17-carboxyheptadecanoylamino)butyrylamino]ethoxy}ethoxy)acetylamino]ethoxy}ethoxy)acetylamino]methyl}benzyl) [K56R, K59R, K69R, D102T, D121Q, K122R, L166F, S167G, M168L, G170T] Ala-FGF21 [Example 5]	100	1	
[S71C, N121Q, L166F, S167G, M168L, 173aA, G174V, Y179F, A180E, des181] Ala-FGF21 (protein) AHPIPDSSPLLQFGGQVRQRYLYTDDAQQTEAHLEIREDGTVGGAADQSPESLLQLKALKPGVIQILGVKTCRFLCQRPDGALYGSLHFDPEACSFRELLLEDGYNVYQSEAHGLPLHLPGQKSPHRDPAPRGPARFLPLPGLPPALPEPPGILAPQPPDVGSSDPFGLVGPSQAVRSPSFE	394		
[N121Q, L166F, S167G, M168L, P171L, S172E, Q173A, G174V, Y179F, A180E, des181] Ala-FGF21 (protein) HPIPDSSPLLQFGGQVRQRYLYTDDAQQTEAHLEIREDGTVGGAADQSPESLLQLKALKPGVIQILGVKTSRFLCQRPDGALYGSLHFDPEACSFRELLLEDGYNVYQSEAHGLPLHLPGQKSPHRDPAPRGPARFLPLPGLPPALPEPPGILAPQPPDVGSSDPFGLVGLEAVRSPSFES	1593	0.7	
N-alpha-bis-(4-{[(2-(2-{2-[2-(2-{2-[(S)-4-carboxy-4-(17-carboxyheptadecanoylamino)butyrylamino]ethoxy}ethoxy)acetylamino]ethoxy}-ethoxy)acetylamino]methyl}benzyl) [Arg56, Arg59, Arg69, Arg122] … (conjugate, UniProt Q9NSA1 29-209, looked up, variant K56R K59R K69R K122R, N-terminal Gly; bis fatty diacid-linker benzyl acylation) Fibroblast growth factor 21: HPIPDSSPLLQFGGQVRQRYLYTDDAQQTEAHLEIREDGTVGGAADQSPESLLQLRALRPGVIQILGVRTSRFLCQRPDGALYGSLHFDPEACSFRELLLEDGYNVYQSEAHGLPLHLPGNRSPHRDPAPRGPARFLPLPGLPPALPEPPGILAPQPPDVGSSDPLSMVGPSQGRSPSYAS	8.5	4.6	
[S71C, N121Q, L166F, S167G, M168L, P171L, S172E, Q173A, G174V, Y179F, A180E, des181] Ala-FGF21 (protein) AHPIPDSSPLLQFGGQVRQRYLYTDDAQQTEAHLEIREDGTVGGAADQSPESLLQLKALKPGVIQILGVKTCRFLCQRPDGALYGSLHFDPEACSFRELLLEDGYNVYQSEAHGLPLHLPGQKSPHRDPAPRGPARFLPLPGLPPALPEPPGILAPQPPDVGSSDPFGLVGLEAVRSPSFE	872		
[S71C, N121Q, L166F, S167G, M168L, des170, 173aA, G174V, Y179F, A180E, des181] Ala-FGF21 (protein) AHPIPDSSPLLQFGGQVRQRYLYTDDAQQTEAHLEIREDGTVGGAADQSPESLLQLKALKPGVIQILGVKTCRFLCQRPDGALYGSLHFDPEACSFRELLLEDGYNVYQSEAHGLPLHLPGQKSPHRDPAPRGPARFLPLPGLPPALPEPPGILAPQPPDVGSSDPFGLVPSQAVRSPSFE	663		
Met-FGF21 (protein, comparative compound) MHPIPDSSPLLQFGGQVRQRYLYTDDAQQTEAHLEIREDGTVGGAADQSPESLLQLKALKPGVIQILGVKTSRFLCQRPDGALYGSLHFDPEACSFRELLLEDGYNVYQSEAHGLPLHLPGNKSPHRDPAPRGPARFLPLPGLPPALPEPPGILAPQPPDVGSSDPLSMVGPSQGRSPSYAS	100		10.8
[K56R, K59R, K69R, K122R] Gly-FGF21 (protein) GHPIPDSSPLLQFGGQVRQRYLYTDDAQQTEAHLEIREDGTVGGAADQSPESLLQLRALRPGVIQILGVRTSRFLCQRPDGALYGSLHFDPEACSFRELLLEDGYNVYQSEAHGLPLHLPGNRSPHRDPAPRGPARFLPLPGLPPALPEPPGILAPQPPDVGSSDPLSMVGPSQGRSPSYAS	66		
[N121Q] Ala-FGF21 (protein) AHPIPDSSPLLQFGGQVRQRYLYTDDAQQTEAHLEIREDGTVGGAADQSPESLLQLKALKPGVIQILGVKTSRFLCQRPDGALYGSLHFDPEACSFRELLLEDGYNVYQSEAHGLPLHLPGQKSPHRDPAPRGPARFLPLPGLPPALPEPPGILAPQPPDVGSSDPLSMVGPSQGRSPSYAS	116		
[N121Q] Met-FGF21 (protein) MHPIPDSSPLLQFGGQVRQRYLYTDDAQQTEAHLEIREDGTVGGAADQSPESLLQLKALKPGVIQILGVKTSRFLCQRPDGALYGSLHFDPEACSFRELLLEDGYNVYQSEAHGLPLHLPGQKSPHRDPAPRGPARFLPLPGLPPALPEPPGILAPQPPDVGSSDPLSMVGPSQGRSPSYAS	119		
